The source of these data is publication PMC9242541, “Importance of Rare DPYD Genetic Polymorphisms for 5-Fluorouracil Therapy in the Japanese Population” (Frontiers in Pharmacology, 2022).

This series deals with the molecule itself. Put plainly: native gel or EMSA; blue native PAGE (Tris-glycine buffer, 5%-20% polyacrylamide gels), 9 μg of the soluble fraction of transfected 293FT cells per lane, immunoblot with polyclonal anti-human DPD antibody; monomer to dimer. On the technique in general: A gel shift assay detects complexes by their altered migration in electrophoresis.

B1: DPD variant V515I (enzyme, human, UniProt Q12882 4-1025, looked up)
chain: VLSKDSADIESILALNPRTQTHATLCSTSAKKLDKKHWKRNPDKNCFNCEKLENNFDDIKHTTLGERGALREAMRCLKCADAPCQKSCPTNLDIKSFITSIANKNYYGAAKMIFSDNPLGLTCGMVCPTSDLCVGGCNLYATEEGPINIGGLQQFATEVFKAMSIPQIRNPSLPPPEKMSEAYSAKIALFGAGPASISCASFLARLGYSDITIFEKQEYVGGLSTSEIPQFRLPYDVVNFEIELMKDLGVKIICGKSLSVNEMTLSTLKEKGYKAAFIGIGLPEPNKDAIFQGLTQDQGFYTSKDFLPLVAKGSKAGMCACHSPLPSIRGVVIVLGAGDTAFDCATSALRCGARRVFIVFRKGFVNIRAVPEEMELAKEEKCEFLPFLSPRKVIVKGGRIVAMQFVRTEQDETGKWNEDEDQMVHLKADVVISAFGSVLSDPKVKEALSPIKFNRWGLPEVDPETMQTSEAWVFAGGDVVGLANTTVESVNDGKQASWYIHKYVQSQYGASISAKPELPLFYTPIDLVDISVEMAGLKFINPFGLASATPATSTSMIRRAFEAGWGFALTKTFSLDKDIVTNVSPRIIRGTTSGPMYGPGQSSFLNIELISEKTAAYWCQSVTELKADFPDNIVIASIMCSYNKNDWTELAKKSEDSGADALELNLSCPHGMGERGMGLACGQDPELVRNICRWVRQAVQIPFFAKLTPNVTDIVSIARAAKEGGANGVTATNTVSGLMGLKSDGTPWPAVGIAKRTTYGGVSGTAIRPIALRAVTSIARALPGFPILATGGIDSAESGLQFLHSGASVLQVCSAIQNQDFTVIEDYCTGLKALLYLKSIEELQDWDGQSPATVSHQKGKPVPRIAELMDKKLPSFGPYLEQRKKIIAENKIRLKEQNVAFSPLKRNCFIPKRPIPTIKDVIGKALQYLGTFGELSNVEQVVAMIDEEMCINCGKCYMTCNDSGYQAIQFDPETHLPTITDTCTGCTLCLSVCPIVDCIKMVSRTTPYEPKRGVPLSVNPVC
notes: dihydropyrimidine dehydrogenase (DPD), human, DPYD cDNA with a variant found in Japanese individuals; made by site-directed mutagenesis of the wild-type construct; also called 1543G > A; source: 293FT cells, transfected (pcDNA3.4), soluble fraction
For orientation: stoichiometry N means the number of molecules, sites or subunits per partner or assembly. Turning to B1, the “stoichiometry N” value stood at 2.

B2: DPD variant F524L (enzyme, human, UniProt Q12882 4-1025, looked up)
chain: VLSKDSADIESILALNPRTQTHATLCSTSAKKLDKKHWKRNPDKNCFNCEKLENNFDDIKHTTLGERGALREAMRCLKCADAPCQKSCPTNLDIKSFITSIANKNYYGAAKMIFSDNPLGLTCGMVCPTSDLCVGGCNLYATEEGPINIGGLQQFATEVFKAMSIPQIRNPSLPPPEKMSEAYSAKIALFGAGPASISCASFLARLGYSDITIFEKQEYVGGLSTSEIPQFRLPYDVVNFEIELMKDLGVKIICGKSLSVNEMTLSTLKEKGYKAAFIGIGLPEPNKDAIFQGLTQDQGFYTSKDFLPLVAKGSKAGMCACHSPLPSIRGVVIVLGAGDTAFDCATSALRCGARRVFIVFRKGFVNIRAVPEEMELAKEEKCEFLPFLSPRKVIVKGGRIVAMQFVRTEQDETGKWNEDEDQMVHLKADVVISAFGSVLSDPKVKEALSPIKFNRWGLPEVDPETMQTSEAWVFAGGDVVGLANTTVESVNDGKQASWYIHKYVQSQYGASVSAKPELPLLYTPIDLVDISVEMAGLKFINPFGLASATPATSTSMIRRAFEAGWGFALTKTFSLDKDIVTNVSPRIIRGTTSGPMYGPGQSSFLNIELISEKTAAYWCQSVTELKADFPDNIVIASIMCSYNKNDWTELAKKSEDSGADALELNLSCPHGMGERGMGLACGQDPELVRNICRWVRQAVQIPFFAKLTPNVTDIVSIARAAKEGGANGVTATNTVSGLMGLKSDGTPWPAVGIAKRTTYGGVSGTAIRPIALRAVTSIARALPGFPILATGGIDSAESGLQFLHSGASVLQVCSAIQNQDFTVIEDYCTGLKALLYLKSIEELQDWDGQSPATVSHQKGKPVPRIAELMDKKLPSFGPYLEQRKKIIAENKIRLKEQNVAFSPLKRNCFIPKRPIPTIKDVIGKALQYLGTFGELSNVEQVVAMIDEEMCINCGKCYMTCNDSGYQAIQFDPETHLPTITDTCTGCTLCLSVCPIVDCIKMVSRTTPYEPKRGVPLSVNPVC
notes: dihydropyrimidine dehydrogenase (DPD), human, DPYD cDNA with a variant found in Japanese individuals; made by site-directed mutagenesis of the wild-type construct; also called 1572T > G; source: 293FT cells, transfected (pcDNA3.4), soluble fraction
Take B2: the “stoichiometry N” value turned out to be 2.
